From the supplement of paper PMC9170038

System: MS2 coat protein
Experiment: apparent KD of MS2 coat protein; designed switch direction (-1 OFF switch, 1 ON switch): -1; higher = weaker reporter binding
How it was run: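 Designed RNA switches with common flanks were made on Illumina chips by stalled E. coli RNA polymerase. Titration with SNAP-549-labelled MS2 coat protein doubled from 0.7 or 1.5 nM up to 3 µM. Apparent KD is each design's median over clusters after curve-fitting normalised fluorescence.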

[1] = Eterna round: R95, input ligand: microRNA oligo, concentration not stated
[2] = Eterna round: R95, input ligand: FMN 200 uM
[3] = Eterna round: R95, input ligand: none
[4] = input ligand: microRNA oligo, concentration not stated

In the case of “AAGUAGGAUGUUAGGAUAUCGCCCUCGCAAUAGGGCGAGAAGGGACAUGAGGAUCACCCAUGUAGGCGAUAGAA [Laedesed] (Eterna round: R97, puzzle: Brourd's mod of Exclusion 4)”, the “apparent KD of MS2 coat protein” value (input ligand: FMN 200 uM) is reported as 29.3 nM and the “apparent KD of MS2 coat protein” value (input ligand: none) is reported as 16.9 nM.
In the case of “ACUAGAUGAGGAUAUGCAUAUUUUCGUGUUCUUCUAGGUUAACAUGAGGAUCACCCAUGUAGAAGGCGUCUAUG [Exclusion 2 - 24] (puzzle: Exclusion 2)”, the “apparent KD of MS2 coat protein” value [1] is reported as 19.3 nM.
With “CUGGUCCGAGGAUAUAUUAUGUGAUACAUGAGGAUCACCCAUGUUAUAUGAUGGAUAUAAAUAGAAGGCGGACUAG [Mat - Exclusion 5 - JL mod - D66] (puzzle: Exclusion 5)” the “apparent KD of MS2 coat protein” value [2] was 48.6 nM, the “apparent KD of MS2 coat protein” value [1] was 42.4 nM and the “apparent KD of MS2 coat protein” value [3] was 35.8 nM.
“AGGAAUGAAGGAUAUACAUGAGGAUCACCCAUGUAAAAGGAAAGAGGUGAUGGAGAUAGUAGAAGGUCAAGAAG [JR_Exclusion3_Sub004] (puzzle: Exclusion 3)” was tested, and the “apparent KD of MS2 coat protein” value [2] was 94.2 nM, the “apparent KD of MS2 coat protein” value [1] was 135 nM and the “apparent KD of MS2 coat protein” value [3] was 204 nM.
In the case of “CUCACGCUCGAGGAUAUCGCACAAAACAAUCAACGAGAAGGCGAGACAUGAGGAUCACCCAUGUGUGGUCAAGA [Ceceed] (Eterna round: R97, puzzle: Exclusion 6)”, the “apparent KD of MS2 coat protein” value (input ligand: FMN 200 uM) is reported as 80.9 nM and the “apparent KD of MS2 coat protein” value (input ligand: none) is reported as 590 nM.
“GUUUUCAGACGGAGAUCCUACAUGAGGAUCACCCAUGUCUCACUAGUUUUUUGCUCGUCUUAUCCUCCUCUGUUCUC [Elimod 29 - Jieux - Sensor, turn-off variant 1] (Eterna round: R97, puzzle: Sensor, turn-off variant 1)” was tested, and the “apparent KD of MS2 coat protein” value (input ligand: FMN 200 uM) was 413 nM and the “apparent KD of MS2 coat protein” value (input ligand: none) was 926 nM.
For “UAUAUAUAGUAAGGAUAUGUAUAUAUUCUAUAAACAGAAGGUACUGACAUGAGGAUCACCCAUGUUUUAGUGUGGGCAUGUAGA [JMF's solution 62] (Eterna round: R96, puzzle: Exclusion NG 1)”, the “apparent KD of MS2 coat protein” value [4] was 27.4 nM.
With “UCGUUCCGUGUAGGAUAUUGGCCUUCUCUGGGCCGAGAAGGACAUGAGGAUCACCCAUGUAUGUUAUUAUCACGCGUGGCGCAU [Design 84] (Eterna round: R96, puzzle: Exclusion NG 1)” the “apparent KD of MS2 coat protein” value (input ligand: FMN 200 uM) was 181 nM, the “apparent KD of MS2 coat protein” value [4] was 22.9 nM and the “apparent KD of MS2 coat protein” value (input ligand: none) was 25.1 nM.
With “GGCGGACAUGAGGAUCACCCAUGUUAGGAUAUGGUGCGAUCGUCGAUAGACGAUAGCACCAGAAGGGACACGCC [Mat - Exclusion 1 - Eli Mod - D2] (Eterna round: R97, puzzle: Exclusion 1)” the “apparent KD of MS2 coat protein” value (input ligand: FMN 200 uM) was 16.6 nM and the “apparent KD of MS2 coat protein” value (input ligand: none) was 16.9 nM.
“UCGCUGCGAGGAUAUACGUUCGCGCGCUUUCGUUUGCGCGUACAUGAGGAUCACCCAUGUAGAAGGCGCGCUGC [Apr-15 SS2-7] (puzzle: Exclusion 2)” was tested, and the “apparent KD of MS2 coat protein” value [1] was 13.7 nM.
“UGCCGGCAUGUAAGGAUAUCCAGGAGAUGUAGAUCGGAGAAGGUACAUGAGGAUCACCCAUGUAUUCCAAUAAA [BmEX4 C.19] (Eterna round: R97, puzzle: Brourd's mod of Exclusion 4)” was tested, and the “apparent KD of MS2 coat protein” value (input ligand: FMN 200 uM) was 18 nM and the “apparent KD of MS2 coat protein” value (input ligand: none) was 18.5 nM.
In the case of “ACAUGAGGAUCACCCAUGUGACAAGAAUGGCUGACACAGAGAUAGGAUAUAGGUGCAUAUCUAACCUAGAAGGGUCAUGACUGG [Deportation 76 - Jieux - Exclusion NG 3] (Eterna round: R96, puzzle: Exclusion NG 3)”, the “apparent KD of MS2 coat protein” value (input ligand: FMN 200 uM) is reported as 40.2 nM, the “apparent KD of MS2 coat protein” value [4] is reported as 23.3 nM and the “apparent KD of MS2 coat protein” value (input ligand: none) is reported as 26.5 nM.
“GGUGCGUUUGUGAGGAUAUGCUGGUCCUUGGGUCAGCAGAAGGCACAUGAGGAUCACCCAUGUGGUGUCGUACC [salish99_Bmod_Ex4_032] (puzzle: Brourd's mod of Exclusion 4)” was tested, and the “apparent KD of MS2 coat protein” value [1] was 178 nM.
With “UUAAGUUCAGGAUAUGAUGAAUUAAACAUGAGGAUCACCCAUGUAGAUCCUGAAUUAACAUCAGAAGGGAAUAUUU [JL-ex5-4.52 Brourd mod] (Eterna round: R97, puzzle: Exclusion 5)” the “apparent KD of MS2 coat protein” value (input ligand: FMN 200 uM) was 24.4 nM and the “apparent KD of MS2 coat protein” value (input ligand: none) was 13.5 nM.
With “UGUUGUUACGCAGGAUAUUGUCAACAGGCAGUAGGAUAUCCGAAAGGAGAAGGACCGCCAACAGGCGAGAAGGGCGGGUUAACA [pwkr exNG2 2xF7 2xFMN.7] (Eterna round: R96, puzzle: Exclusion NG 2)” the “apparent KD of MS2 coat protein” value (input ligand: FMN 200 uM) was 369 nM, the “apparent KD of MS2 coat protein” value [4] was 167 nM and the “apparent KD of MS2 coat protein” value (input ligand: none) was 323 nM.
For “CUGCUCCGUGUAGGAUAUCCGUGCAACCAAUACGGAGAAGGACAUGAGGAUCACCCAUGUAUGUUAUUAUCACGUGAAGCGUCC [Design 24] (Eterna round: R96, puzzle: Exclusion NG 1)”, the “apparent KD of MS2 coat protein” value (input ligand: FMN 200 uM) was 23.1 nM, the “apparent KD of MS2 coat protein” value [4] was 17 nM and the “apparent KD of MS2 coat protein” value (input ligand: none) was 24.3 nM.
In the case of “GAUUAGCAAGCGAGAUCCCACAUGAGGAUCACCCAUGUGCUCGUCUUAUAAAGUACUGUGACGAAAGUCACGGUACA [Mat - Sensor, turn-off var - Eli Mod - D11] (Eterna round: R97, puzzle: Sensor, turn-off variant 1)”, the “apparent KD of MS2 coat protein” value (input ligand: FMN 200 uM) is reported as 17.2 nM and the “apparent KD of MS2 coat protein” value (input ligand: none) is reported as 14.8 nM.
“GAGUUAGCGUGAGGAAUAUACAUGAGGAUCACCCAUGUUAGCUUAUAUAUUGCUCGUCUUAUAACAACAAUUAACUG [Mod JX-Electric-eye2] (Eterna round: R97, puzzle: Sensor, turn-off variant 1)” was tested, and the “apparent KD of MS2 coat protein” value (input ligand: FMN 200 uM) was 25.4 nM and the “apparent KD of MS2 coat protein” value (input ligand: none) was 27.2 nM.
With “UAAUAAUAGCAAGGAUAUGGUUAUUAUAAUAUACCAGAAGGUGCACAUGAGGAUCACCCAUGUUUUAUAAUUUGUAAUUUAAAU [First something] (Eterna round: R96, puzzle: Exclusion NG 1)” the “apparent KD of MS2 coat protein” value [4] was 22.9 nM.
For “GCAUGCUCCGAGGAUAUCGAAGCUAAUUAUGCACGAGAAGGCGGAACAUGAGGAUCACCCAUGUGAUGCCAAUG [Qutequen] (Eterna round: R97, puzzle: Exclusion 6)”, the “apparent KD of MS2 coat protein” value (input ligand: FMN 200 uM) was 51.9 nM and the “apparent KD of MS2 coat protein” value (input ligand: none) was 21.6 nM.
In the case of “AGCUGUGGCCGAGGAUAUCUGUUUCAUAAAACCGAAAUAUAAUCGGACAUGAGGAUCACCCAUGUAGAGAAGGCGGUCUCAGCA [Eli eng2 - 097] (Eterna round: R96, puzzle: Exclusion NG 2)”, the “apparent KD of MS2 coat protein” value [4] is reported as 12 nM.
“GCCGUAAAUGUGAGGAUAUACCUAUGGAAACAUAGGUAGAAGGCACAUGAGGAUCACCCAUGUUCUCAAUCGGC [Mat - Exclusion 4 - Eli Mod - D6] (Eterna round: R97, puzzle: Brourd's mod of Exclusion 4)” was tested, and the “apparent KD of MS2 coat protein” value (input ligand: FMN 200 uM) was 775 nM and the “apparent KD of MS2 coat protein” value (input ligand: none) was 195 nM.
For “CCGACGUGAGGAUAUUAGAACGAGCAGACCUGAGCUCGUUCUGAGAAGGCACAUGAGGAUCACCCAUGUGAGAA [Eternabot (Original) Solution 50] (Eterna round: R97, puzzle: Exclusion 4)”, the “apparent KD of MS2 coat protein” value (input ligand: FMN 200 uM) was 352 nM and the “apparent KD of MS2 coat protein” value (input ligand: none) was 31.4 nM.
“CUUGCGGACAAAGGAUAUUGCGGUGACCGGCUCGGCGUACCGAGCCUACAUGAGGAUCACCCAUGUAAGAAGGUUGACGCUGGU [JL ViennaUCT Qudice mod 4] (Eterna round: R96, puzzle: Exclusion NG 2)” was tested, and the “apparent KD of MS2 coat protein” value (input ligand: FMN 200 uM) was 106 nM, the “apparent KD of MS2 coat protein” value [4] was 20 nM and the “apparent KD of MS2 coat protein” value (input ligand: none) was 27.6 nM.
For “AAGUAGUGACAGGAUAUUGUUCAUGAUAUGGAACAAGAAGGGUUAACAUGAGGAUCACCCAUGUAUCCUCCGUG [Eternabot (L2) Solution 14] (Eterna round: R97, puzzle: Exclusion 6)”, the “apparent KD of MS2 coat protein” value (input ligand: FMN 200 uM) was 401 nM and the “apparent KD of MS2 coat protein” value (input ligand: none) was 44.9 nM.
